# Test results published in the DeepSol protein solubility set.
# Assay: soluble on expression in E. coli; label from the status in PepcDB or PDB records
row,Sequence,soluble on expression in E. coli
1,MVIRYDKAFIKDFKETDEGYLTITACPITRPGVFPYRRTDGGLSMEAKLPDELFSKATVLSANAKPMTDDHPTEPVTAANYNKYSKGMTHNDAHVLDNKLLVSFTITDAETIKKINDGKRELSIGFQADVSKETGVYNGMQYDSVQRNMQINHIAIVDEGRAGPEVAIRGDSVAFMIDTKDKQTGGNGMSKLIIDSKEFEVDSIVKAKFESLEAKLDAAEQRKANVEKLEGERDALKAQIDKLNKEIDEAKKKEVTADALDKRVQDRVDLINKAQKFLGDSVDFTGKSDREIKESVIAKTSPDFKGDGKSDDYIAAYFDSAVANVEKKGFTNPAAFNDAKDKDKEAAEDIEKQKNNRLNMNKKEDK,not soluble
2,MVKAEFGLYSATGGRVLVWLEQIHVQPLELLSTDERIRRQSIGVTILWNNILVMIQCDGNILPQKHQGFYRFHCEFQQRSLHTAEHLMSFMDEGS,not soluble
3,MVKLRIGYPEDPDYQERLEEFEARIARGEKIEPGDWMPAEYRRQLIRMISQHAHSEWVGMLPEGAWITRAPSLRRKLILLAKVQDEAGHGQYLYHAAETLGITREEMVEALLSGKAKYSNIFNYPTLTWADVAIIGWLVDGMAIKNQTMLAQCSYGPYSRAMVRICAEETFHHKQGKEAVLLYAKGSPKQRRMVQDALNRWWWPTLMMAGPHDTDSPHTPLLLRWGIKTKTNDQIRQEFLNEHVPELLDAGLSIPDPDLRYDEKTGNWIHGPIPWDEFWKVIGGEGPMNRHRLQGRRRAHQEGRWVREAMEAYAKRRLAQAAD,soluble
4,MVKTMKCKFCDKKSYIKLKSPKMYLCKEHFVEYFENKVKKSIDKYKMLSKDEKILVAVSGGKDGHAAAWVLKKLGYNIELFHINLGIEGFSEESLKAVKELAEKLEVPLHVVNLKDITGKTMEDIRGKKCSICGTTKRYLMNKFGYENGFDVIVTGHNLDDEVSFILNNLFNWNIRYLAKHEPVLPAHDKFLKKVKIFFEIEEELILKYAEAEEIPYTTVECKYAERAITLKHRAYLNELEKERPGIKYQFLSGYMKNRHLFKVEEEDFQFRECEVCGMTSAGKICSFCRVWKLYKKKKENRN,soluble
5,MVLADGELTVLGRIRSASNATFLCESTLGLRSLHCVYKPVSGERPLWDFPDGTLAGRELSAYLVSTQLGWNLVPHTIIRDGPAGIGMLQLWVQQPGDAVDSDPLPGPDLVDLFPAHRPRPGYLPVLRAYDYAGDEVVLMHADDIRLRRMAVFDVLINNADRKGGHILCGIDGQVYGVDHGLCLHVENKLRTVLWGWAGKPIDDQILQAVAGLADALGGPLAEALAGRIAAAEIGALRRRAQSLLDQPVMPGPNGHRPIPWPAFLEHHHHHH,not soluble
6,MVLRDKMILLDENTKAIVQGITGRQGSFHTKKMLECGTKIVGGVTPGKGGQNVHGVPVFDTVKEAVKETDANASVIFVPAPFAKDAVFEAIDAGIELIVVITEHIPVHDTMEFVNYAEDVGVKIIGPNTPGIASPKVGKLGIIPMEVLKEGSVGMVSRSGTLTYEIAHQIKKAGFGVSTCVGIGGDPIVGLRYKEVLDLFEKDDETEAIVMIGEIGGGAEEEAAKFIEKMKKPVIGYIAGQSAPEGKRMGHAGAIVEKGKGTAESKMKALEEAGAYVAKNISDIPKLLAGILGK,soluble
7,MVMNRSSPHGGGVAAGDGGGRPLRPGHFPLRPLRGHLPPGGRIFALALAVALPVQAETLASRAPETVAITLYRDGDGPFQAMSPWVRQQARDKGLVLVTETRTVDLPAGRHTLRFDGVAEGLIPQSAAVEGLPGKAVERNYDYALLSPGTLVERSLGQPIKVVRTNRKTGRQQTVDATLIQGPYGLMVRTAEGVEALGCSGGAERLVLGAVPEGLTDKPSLSTIVEVPAPTRAKLTVSYLALGVNWQADYVARIHPDGQRLDLTGWLTLVNSGGSQFADAKTQAVAGKLSRKPVRVDKGEARSIHRACWPMDTTHYGQEPPPPPAPPPPLPIPMMSAAPMARAGAEEIAVTGARAKLAEQSNLGDYKLYTLPEPVTLNARQTKQVAFLDQKDVAFQRLYAVEMDSYDDYDNADWPLIIPDVVLRLENKTANGLGKPLPSGALSAIETAGGRPTFAGEQAVRDVAVGEPLDLVIGRAMDVHARPRLVEERTLSKGRVRRTYELDLANAKTVPITVEIRHDPTAPYFKLVSEPQKHDIRQGQVAWRVTLPAGERRSFRYAVAFGR,not soluble
8,MVNKDVKQTTAFGAPVWDDNNVITAGPRGPVLLQSTWFLEKLAAFDRERIPERVVHAKGSGAYGTFTVTKDITKYTKAKIFSKVGKKTECFFRFSTVAGERGSADAVRDPRGFAMKYYTEEGNWDLVGNNTPVFFIRDAIKFPDFIHTQKRDPQTNLPNHDMVWDFWSNVPESLYQVTWVMSDRGIPKSFRHMDGFGSHTFSLINAKGERFWVKFHFHTMQGVKHLTNEEAAEIRKHDPDSNQRDLFDAIARGDYPKWKLSIQVMPEEDAKKYRFHPFDVTKIWYTQDYPLMEVGIVELNKNPENYFAEVEQAAFTPANVVPGIGYSPDRMLQGRLFSYGDTHRYRLGVNYPQIPVNKPRCPFHSSSRDGYMQNGYYGSLQNYTPSSLPGYKEDKSARDPKFNLAHIEKEFEVWNWDYRADDSDYYTQPGDYYRSLPADEKERLHDTIGESLAHVTHKEIVDKQLEHFKKADPKYAEGVKKALEKHQKMMKDMHGKDMHHTKKKK,soluble
9,MVNKKRQVRFEFFQVNGKAQEGEKIVKGLFDLYPLADRINSISNYTDRDVILFGEKVRMDRFFEVSSSPELYAMHFTRLRNDKPAYVELNNEVLKEIPLNPGEYIAEDISCLYDRELSVLMVQRNIHSLSPSGIEDYFTEMSDDLVEIELLPVVNKEIISKALANEKFRKLELRAGSMNTTSDRSGLRKVLGPFMELFEKFEGTNFVIEISSGRSKKDLSEDQMKEVITAIEQDKSLFSSAIVSAKKSKEVPVEKYDLINGKLYVYRSFDLPDGAFLKSDSVIDNIKNYYFHPNEGGYRKQIIDAVK,not soluble
10,MVNLDAEIYEHLNKQIKINELRYLSSGDDSDTFLCNEQYVVKVPKRDSVRISQKREFELYRFLENCKLSYQIPAVVYQSDRFNIMKYIKGERITYEQYHKLSEKEKDALAYDEATFLKELHSIEIDCSVSLFSDALVNKKDKFLQDKKLLISILEKEQLLTDEMLEHIETIYENILNNAVLFKYTPCLVHNDFSANNMIFRNNRLFGVIDFGDFNVGDPDNDFLCLLDCSTDDFGKEFGRKVLKYYQHKAPEVAERKAELNDVYWSIDQIIYGYERKDREMLIKGVSELLQTQAEMFIF,soluble
11,MVNPFIKEAKEKMKRTLEKIEDELRKMRTGKPSPAILEEIKVDYYGVPTPVNQLATISISEERTLVIKPWDKSVLSLIEKAINASDLGLNPINDGNVIRLVFPSPTTEQREKWVKKAKEIVEEGKIAIRNIRREILKKIKEDQKEGLIPEDDAKRLENEIQKLTDEFIEKLDEVFEIKKEEIMEF,soluble
12,MVNQEKTLDVGFTHADFAALLDRYDYHFNPGDIVAGTVFSIEPKGALIDIGAKTAAYIPIQEMSINRIESPEEVLQPNETREFFILADENEEGQLTLSIRRIEYMRAWERVRQLQAEDATVRSQVFATNRGGALVRIEGLRGFIPGSHISTRVNKEELVGEELPLKFLEVDEERNRLVLSHRRALVERKMNKLEVGEVVVGTVRGIKPYGAFIDIGGVSGLLHISEISHDHIDTPHSVFNVNDQVKVMIIDLDAERGRISLSTKQLEPEPGDMVKNPQLVYEKAEEMAERYRQQLLQQQQQAAGETPEEGMEDIPEATEDDSPAPILQEALEHHHHHH,not soluble
13,MVNVLSNLSNLSNILGKSNKGVGIELAPERMNIVHLCKQRQGLKIESLTTIPVPEGIVVDGQINDPPRMAEIIQQGMAESKIKASRVATCIPGRDAIVRVIPVPAELDNKELREMVLNHEAALYLPYPREEADVDYQKLGYFVDEDGIEKVQVLLVATRKEITDTYINTFAEAGLKVDVLEINSFALIRTIRDQLRLFGPQEAAVLVDIEFDSTEIAIIINGVPQFSRTVPIGTYQLQAALSRAMNLPTSRDMDMLMGMTIPTNSMDVGRTGTTGVNPGMGPMLKILGELSDELRRSIDFYINQSEGLEVAQILLAGTGGGLQQLDEFFTQRLGFPTTQIDPIRDLSLQVEAEKYPPVQRPGLGIILGLAMREG,not soluble
14,MVQHLSAQEIIQYISDAKKSTPLKVYVNGHFENVTFPESFKVFGSEHSKVIFCEANEWKQFYQQNHSLITELEIEMDRRNSAIPLKDL,not soluble
15,MVQWSPFVMSFKKKYPWIQLAGHAGSFKAAANGRILKKHCESEQRCLDRLMADVLRPFVPAYHGDVVKDGERYNQMDDLLADFDSPCVMDCKMGVRTYLEEELTKARKKPSLRKDMYQKMVEVDPEAPTEEEKAQRAVTKPRYMQWRETISSTATLGFRIEGIKKEDGSVNRDFKKTKTREQVTEAFREFTKGNQNILIAYRDRLKAIRATLEISPFFKCHEVIGSSLLFIHDKKEQAKVWMIDFGKTTPLPEGQTLQHDVPWQEGNREDGYLSGLDNLIDILTEMSQG,soluble
16,MVRANGAVSLRELARVVQTSEVTVRRDVRALEAEGLLDRRHGGAVLPGGFTRESGFPQKSHLATAEKTAIADLAAGLVEEGEAIVVGAGTTTQELARRLARVPGLTVVTNSLLVAQALAHANRVEVVMTGGTLRGSNYALVGSGAEQSLQGLRVSKAFLSGSGLTAERGLSTSNMLSASVDRALVQAAAEVVVLADHSKLGTDTMFQTVPTDVITRLVTDESPGHDDRAATELQALADQGVQIAVAGASGGGTANGTGASGAPGGDSVGRQQRRDVPLPGPRRQVPGAAGAGLRSATALGEQGGGAERARVADMRRRLEHHHHHH,not soluble
17,MVREAKNLRARTKKISLHICRKHAPQSEDFRCVFLRQQVIDRDIEAMAKPYDFYIVWKLSYNHVFTIHPRHTILELPPVYPDTALVPFFIMRFSFFDHMISCEYIFHRKLFVCLHRKNKQKQKSNM,not soluble
18,MVRIYTLTLAPSLDSATITPQIYPEGKLRCTAPVFEPGGGGINVARAIAHLGGSATAIFPAGGATGEHLVSLLADENVPVATVEAKDWTRQNLHVHVEASGEQYRFVMPGAALNEDEFRQLEEQVLEIESGAILVISGSLPPGVKLEKLTQLISAAQKQGIRCIVDSSGEALSAALAIGNIELVKPNQKELSALVNRELTQPDDVRKAAQEIVNSGKAKRVVVSLGPQGALGVDSENCIQVVPPPVKSQSTVGAGDSMVGAMTLKLAENASLEEMVRFGVAAGSAATLNQGTRLCSHDDTQKIYAYLSR,soluble
19,MVRKALWKECLRIGGKVPLLNGEKLREIFRSGRGTGRFAKALGIEYGVDTSFNMLKVAKERGIKVALAKGENLPFKSETFDSVFLVVTICFVENPKQVLKEAHRVLKRDGKLYLGLILKESKWAKFYEEKAKNGHPFYKHARFYSFFELKEMVKDIFSFEEMKSTLLEEPQDSEPVKNKEIKPGFYENSGFTCIRLSKKLLEHHHHHH,not soluble
20,MVRLTTELFAERPQFVNSVNMREINLRGQKIPVIENMGVTRDQFDVIDLTDNDIRKLDNFPTFSRLNTLYLHNNRINYIAPDIATKLPNLKTLALTNNNICELGDIEPLAECKKLEYVTFIGNPITHKDNYRMYMIYKLPTVRVIDFNRVRLTEREAAKKMFKGKSGKKARDAIQKSVHTEDPSEIEPNENSSGGGARLTDEDREKIKEAIKNAKSLSEVNYLQSILASGKVPEKGWNRQMDQNGADGEAMES,not soluble
